This note sets out measurements from PMC11650716, “Identification of a robust bacterial pyranose oxidase that displays an unusual pH dependence” (The Journal of Biological Chemistry, 2024).

As a reminder, the stoichiometry N is the number of molecules, sites or subunits per partner or assembly.

The target in experiment [1] is pyranose oxidase from Oscillatoria princeps (OPOx) (Oscillatoria princeps). Kind of experiment: crystal structure; X-ray, 2.64 Å, space group P2(1)2(1)2(1), tetramer in the asymmetric unit; crystals with sodium sulfate as additive at pH 9.2. A low-resolution C222(1) crystal form has a dimer in the asymmetric unit and forms the tetramer through a crystallographic two-fold axis.

The target is the same in experiment [2]. Kind of experiment: dynamic light scattering + SEC; DLS: about 15 μM OPOx in 50 mM citrate buffer (pH 5.5), 294 K; gel permeation chromatography (Fig. S3).
In experiment [3] the target is T1, OPOx (pyranose oxidase from Oscillatoria princeps) (Oscillatoria princeps, UniProt A0ABF7PQA8).
T1 construct: full length, 534 residues (533 also printed), N-terminal His-tag, pBAD vector, E. coli NEB 10-beta; synthetic codon-optimised gene; 61 kDa with tag; homotetramer
T1 sequence (A0ABF7PQA8 1-533): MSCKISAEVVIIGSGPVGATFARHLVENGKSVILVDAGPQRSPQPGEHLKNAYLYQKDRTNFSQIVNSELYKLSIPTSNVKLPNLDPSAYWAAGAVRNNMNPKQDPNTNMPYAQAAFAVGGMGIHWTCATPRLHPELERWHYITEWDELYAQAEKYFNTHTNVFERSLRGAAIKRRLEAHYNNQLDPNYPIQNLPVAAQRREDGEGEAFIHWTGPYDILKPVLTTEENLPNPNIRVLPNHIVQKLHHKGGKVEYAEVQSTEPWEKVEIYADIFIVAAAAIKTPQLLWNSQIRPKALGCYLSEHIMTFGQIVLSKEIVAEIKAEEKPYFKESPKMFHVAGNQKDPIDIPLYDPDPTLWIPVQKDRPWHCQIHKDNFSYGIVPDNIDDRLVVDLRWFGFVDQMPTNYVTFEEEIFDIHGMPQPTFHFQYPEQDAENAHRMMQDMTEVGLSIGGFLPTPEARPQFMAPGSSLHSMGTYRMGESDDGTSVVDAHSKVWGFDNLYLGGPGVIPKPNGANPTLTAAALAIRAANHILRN
The experiment is described as follows: X-ray crystal structure, […] Å. In kind it is binding. The settings on record: covalent; 8α-methyl of FAD bound to His125 NE2; crystals at pH 9.2.

As to “pyranose oxidase from Oscillatoria princeps (OPOx) (enzyme)”, the stoichiometry N in experiment [1] and in experiment [2] was 4 in each case.

With `Cc1cc2nc3c(=O)[nH]c(=O)nc-3n(C[C@H](O)[C@H](O)[C@H](O)COP(=O)(O)OP(=O)(O)OC[C@H]3O[C@@H](n4cnc5c(N)ncnc54)[C@H](O)[C@@H]3O)c2cc1C` [FAD], the “X-ray crystal structure, 2.64 Å” value in experiment [3] is recorded as “crystal structure of OPOx with a covalently bound FAD cofactor per subunit”.
